# Source: US20070160981A1 (priority 2005, published 2007)
# “And” between values parts separate entries of the source, which are not always exact repeats. Equal entries are not always repeated.
# Key:
# SARS-CoV PLP2 = SARS-CoV PLP2 (Severe acute respiratory syndrome coronavirus, UniProt P0C6U8)
# [1] = system: T1, 9-mer oligopeptide FRLKGGAPI
# T1 sequence: FRLKGGAPI
# [2] = system: T2, 12-mer oligopeptide RELNGGAVTRYV containing the Gly180-Ala181 cleavage site
# T2 sequence: RELNGGAVTRYV
# [3] = system: T3, 10-mer oligopeptide FRLKGGAPIK (six P residues, four P′ residues)
# T3 sequence: FRLKGGAPIK
# [4] = system: 12-mer oligopeptide […] containing the Gly818-Ala819 cleavage site
# [5] = system: T4, 12-mer oligopeptide ISLKGGKIVSTC containing the Gly2740-Lys2741 cleavage site
# T4 sequence: ISLKGGKIVSTC
# [6] = system: T5, 8-mer oligopeptide LKGGAPIK
# T5 sequence: LKGGAPIK
# [7] = system: BCoV 12-mer peptide substrate (P6-P1′ FSLKGGA)
# [8] = system: T6, 11-mer Gly818-Ala819 site-containing oligopeptide VFRLKGGAPIK
# T6 sequence: VFRLKGGAPIK
# [9] = system: T7, 14-mer Gly818-Ala819 site-containing oligopeptide VFRLKGGAPIKGVT
# T7 sequence: VFRLKGGAPIKGVT
# [10] = system: T8, 10-mer oligopeptide RLKGGAPIKG (five P residues, five P′ residues)
# T8 sequence: RLKGGAPIKG
# [11] = system: T9, 16-mer Gly818-Ala819 site-containing oligopeptide NVFRLKGGAPIKGVTF
# T9 sequence: NVFRLKGGAPIKGVTF
# [12] = system: MHV 12-mer peptide substrate (P6-P1′ FSLKGGA)
# [13] = system: T10, 18-mer Gly818-Ala819 site-containing oligopeptide NNVFRLKGGAPIKGVTFG
# T10 sequence: NNVFRLKGGAPIKGVTFG
# [14] = system: Fluorogenic peptide substrate Abz-[…]-EDDNP
substance,measurement,setting,value
RELNGGAVTRYV [Gly180-Ala181],Cleavage % 12 hours,SARS-CoV PLP2,5 ± 1%
same,percentage of the cleavage after 12 hours of digestion,SARS-CoV PLP2,5%
"SARS-CoV papain-like protease 2 (SARS-CoV PLP2), residues 1414-1858 of pp1a, N-terminal 6xHis tag","Cleavage %, 2 hours",[1],36.2%
same,"Cleavage %, 12 hours",[1],85.1%
same,"Cleavage %, 12 hours",[2],5%
same,"Cleavage %, 2 hours",[3],49.9%
same,"Cleavage %, 12 hours",[3],100%
same,"Cleavage %, 2 h",[4],70.1%
same,"Cleavage %, 2 hours",[4],70% and 70.1%
same,"Cleavage %, 12 h",[4],100%
same,"Cleavage %, 12 hours",[4],100%
same,"Cleavage %, 2 hours",[5],7%
same,"Cleavage %, 12 hours",[5],29%
same,"Cleavage %, 2 hours",[6],11.4%
same,"Cleavage %, 12 hours",[6],44.7%
same,"Cleavage %, 2 hours",[7],27%
same,"Cleavage %, 12 hours",[7],85%
same,"Cleavage %, 2 hours",[8],52.9%
same,"Cleavage %, 12 hours",[8],100%
same,"Cleavage %, 2 hours",[9],67.6%
same,"Cleavage %, 12 hours",[9],100%
same,"Cleavage %, 2 hours",[10],14.8%
same,"Cleavage %, 12 hours",[10],56.4%
same,"Cleavage %, 2 hours",[11],63%
same,"Cleavage %, 12 hours",[11],100%
same,"Cleavage %, 2 hours",[12],21%
same,"Cleavage %, 12 hours",[12],80%
same,"Cleavage %, 2 hours",[13],60.5%
same,"Cleavage %, 12 hours",[13],100%
same,Kcat/Km (µM^-1min^-1) at pH 5.25,[14],0.06 µM^-1min^-1
same,Kcat/Km (µM^-1min^-1) at pH 6.05,[14],0.17 µM^-1min^-1
same,Kcat/Km (µM^-1min^-1) at pH 6.82,[14],0.31 µM^-1min^-1
same,Kcat/Km (µM^-1min^-1) at pH 7.42,[14],0.27 µM^-1min^-1
same,Kcat/Km (µM^-1min^-1) at pH 8.01,[14],0.3 µM^-1min^-1
same,Kcat/Km (µM^-1min^-1) at pH 8.65,[14],0.3 µM^-1min^-1
same,Kcat/Km (µM^-1min^-1) at pH 9.20,[14],0.21 µM^-1min^-1
same,Kcat/Km (µM^-1min^-1) at pH 9.80,[14],0.08 µM^-1min^-1
same,Km (µM) at pH 5.25,[14],21.4 µM
same,Km (µM) at pH 6.05,[14],64 µM
same,Km (µM) at pH 6.82,[14],65.5 µM
same,Km (µM) at pH 7.42,[14],77.2 µM
same,Km (µM) at pH 8.01,[14],72 µM
same,Km (µM) at pH 8.65,[14],71.5 µM
same,Km (µM) at pH 9.20,[14],68 µM
same,Km (µM) at pH 9.80,[14],70.5 µM
same,kcat (min^-1) at pH 5.25,[14],1.37 min^-1
same,kcat (min^-1) at pH 6.05,[14],11.9 min^-1
same,kcat (min^-1) at pH 6.82,[14],20.6 min^-1
same,kcat (min^-1) at pH 7.42,[14],19.8 min^-1
same,kcat (min^-1) at pH 8.01,[14],21.9 min^-1
same,kcat (min^-1) at pH 8.65,[14],22 min^-1
same,kcat (min^-1) at pH 9.20,[14],14.1 min^-1
same,kcat (min^-1) at pH 9.80,[14],5.99 min^-1
same,pH-independent kcat value (constant C from the pH-Log kcat plot),[14],25.4±3.43 min^-1
same,pH-independent kcat/Km value (constant C from the pH-Log (kcat/Km) plot),[14],0.31±0.02 min^-1µM^-1
same,true Km value,[14],corrected to 82 µM
